Reference: patent CN115433274A (BEIJING KENUO XINCHENG TECH CO LTD, dated 2022)

B2: 食蟹猴SA重组蛋白 (other)
chain: DTHKSEVAHRFKDLGEEHFKGLVLVAFSQYLQQCPFEEHVKLVNEVTEFAKTCVADESAENCDKSLHTLFGDKLCTVATLRETYGEMADCCAKQEPERNECFLQHKDDNPNLPPLVRPEVDVMCTAFHDNEATFLKKYLYEVARRHPYFYAPELLFFAARYKAAFAECCQAADKAACLLPKLDELRDEGKASSAKQRLKCASLQKFGDRAFKAWAVARLSQKFPKAEFAEVSKLVTDLTKVHTECCHGDLLECADDRADLAKYMCENQDSISSKLKECCDKPLLEKSHCLAEVENDEMPADLPSLAADYVESKDVCKNYAEAKDVFLGMFLYEYARRHPDYSVMLLLRLAKAYEATLEKCCAAADPHECYAKVFDEFQPLVEEPQNLVKQNCELFEQLGEYKFQNALLVRYTKKVPQVSTPTLVEVSRNLGKVGAKCCKLPEAKRMPCAEDYLSVVLNRLCVLHEKTPVSEKVTKCCTESLVNRRPCFSALELDEAYVPKAFNAETFTFHADMCTLSEKEKQVKKQTALVELVKHKPKATKEQLKGVMDNFAAFVEKCCKADDKEACFAEEGPKFVAASQAALA
notes: Bought product; also called cyno SA; Cynomolgus serum albumin

Columns and labels:
[1] = molecular target: T1, 牛血清白蛋白(BSA) (bovine, UniProt P02769 25-607); assay: phage ELISA, phage supernatant on BSA-coated plate
T1 construct: also called Bovine serum albumin

[2] = molecular target: B2; assay: phage ELISA, phage supernatant on cyno SA-coated plate
[3] = molecular target: T2, 对照抗体ALB8 (ALB8重组蛋白, VHH-hFc) (human); assay: ELISA, albumin coated at 1 μg/mL, HRP-anti-human Fc
T2 construct: Control anti-HSA nanobody expressed as fusion with human Fc; also called 对照纳米抗体ALB8
T2 sequence (chain, as listed by the source limits assumed): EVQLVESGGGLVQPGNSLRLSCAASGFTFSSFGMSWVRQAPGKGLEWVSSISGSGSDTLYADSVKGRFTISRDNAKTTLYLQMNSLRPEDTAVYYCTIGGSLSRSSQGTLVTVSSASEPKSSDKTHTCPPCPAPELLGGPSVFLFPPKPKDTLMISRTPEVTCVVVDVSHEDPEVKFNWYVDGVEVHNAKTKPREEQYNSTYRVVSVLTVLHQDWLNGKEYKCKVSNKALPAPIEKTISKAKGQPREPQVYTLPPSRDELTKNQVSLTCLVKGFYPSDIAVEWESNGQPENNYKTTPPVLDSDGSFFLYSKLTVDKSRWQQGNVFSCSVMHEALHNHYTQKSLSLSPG

B1: 噬菌体展示的纳米抗体2MG6 (VHH)
VHH: QVQLQESGGGLVQAGGSLRLSCAASGSTYPTAYIAWFRQAPGKEREGVAGIYTVGGSTFYTDSVKGRFTISRDNAKNTVYLLMNSLKPEDTAMYFCAAGRTDTAKLRDPRSFGYWGQGTQVTVSS
notes: the phage fusion part is not described; also called 克隆2MG6
B1: no binding [1]; binds [2].

B2: binds [3].
